125 sequences from the supplement of paper PMC9112550, “Optimization of the antimicrobial peptide Bac7 by deep mutational scanning” (BMC Biology, 2022) can be followed below.

For the data set, the system named is Escherichia coli TOP10. The experiment in a line: shrunken log2 fold change of peptide-encoding DNA abundance (4.5 h post-induction vs induction); higher = less antimicrobial activity (less host growth inhibition). The settings on record: time post-induction: 4.5 h; library: site-saturation at positions 5, 18, 19, 20.
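Note: peptides expressed intracellularly from a pBAD plasmid library in pooled LB shake-flask culture, induced with 0.3% L-arabinose, DNA abundance read by NGS, three biological replicates, DESeq2 with apeglm shrinkage.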

On to RRIRNRPPRLPRPRPRPATWPRP, for which the “shrunken log2 fold change” value is -0.000853. The result for RRIRARPPRLPRPRPRPGAQPRP reads 0.92; that for RRIRVRPPRLPRPRPRPSDFPRP, -0.394. The result for RRIRERPPRLPRPRPRPQCIPRP reads 0.0341; that for RRIRDRPPRLPRPRPRPSGRPRP, 0.124.

In the case of RRIRPRPPRLPRPRPRPCNWPRP, the “shrunken log2 fold change” value was -0.0706. As for RRIRSRPPRLPRPRPRPRFVPRP, the “shrunken log2 fold change” value is 0.129.

In the case of RRIRYRPPRLPRPRPRPCLLPRP, the “shrunken log2 fold change” value is -1.04.

In the case of RRIRIRPPRLPRPRPRPEPRPRP, the “shrunken log2 fold change” value was determined as 0.563. For RRIRSRPPRLPRPRPRPVVAPRP, the “shrunken log2 fold change” value was 0.608. As to RRIRKRPPRLPRPRPRPQPLPRP, the “shrunken log2 fold change” value was found to be 0.405. For RRIRSRPPRLPRPRPRPMGWPRP, the “shrunken log2 fold change” value worked out at 0.358. The result for RRIRGRPPRLPRPRPRPQKIPRP reads 0.274. The value for RRIRRRPPRLPRPRPRPNKMPRP was -0.0549; that for RRIRWRPPRLPRPRPRPVRGPRP was 0.538; that for RRIRGRPPRLPRPRPRPYSEPRP was -0.093. As to RRIRARPPRLPRPRPRPPQAPRP, the “shrunken log2 fold change” value was 1.03. The result for RRIRFRPPRLPRPRPRPHQQPRP reads 0.0921; that for RRIRFRPPRLPRPRPRPSRHPRP, -0.162.

RRIRIRPPRLPRPRPRPQPTPRP: the “shrunken log2 fold change” value turned out to be 0.115. As for RRIRGRPPRLPRPRPRPDDYPRP, the “shrunken log2 fold change” value was 0.662. On to RRIRGRPPRLPRPRPRPTRCPRP, for which the “shrunken log2 fold change” value turned out to be 0.527.

Consider RRIRSRPPRLPRPRPRPRTYPRP, for which the “shrunken log2 fold change” value is -0.452.

Turning to RRIRDRPPRLPRPRPRPKGNPRP, the “shrunken log2 fold change” value was determined as 0.0802. As to RRIRMRPPRLPRPRPRPFLKPRP, the “shrunken log2 fold change” value is -0.636. The result for RRIRERPPRLPRPRPRPSKIPRP reads -0.506; that for RRIRRRPPRLPRPRPRPMFWPRP, 0.506. The result for RRIRYRPPRLPRPRPRPTVMPRP reads -0.176; that for RRIRVRPPRLPRPRPRPQSIPRP, -0.176; that for RRIRDRPPRLPRPRPRPIEQPRP, 0.0525. Consider RRIRFRPPRLPRPRPRPENLPRP, for which the “shrunken log2 fold change” value is -0.0251. The result for RRIRARPPRLPRPRPRPYAKPRP reads 0.249. The result for RRIRVRPPRLPRPRPRPPLGPRP reads 0.554; that for RRIRFRPPRLPRPRPRPYEMPRP, -0.412; that for RRIRCRPPRLPRPRPRPNIVPRP, -0.34. The result for RRIRARPPRLPRPRPRPAWMPRP reads -0.00906; that for RRIRVRPPRLPRPRPRPAEMPRP, 0.0714. In the case of RRIRERPPRLPRPRPRPENRPRP, the “shrunken log2 fold change” value was -0.29.

As to RRIRNRPPRLPRPRPRPHSSPRP, the “shrunken log2 fold change” value was -0.00587. Regarding RRIRDRPPRLPRPRPRPHWFPRP, the “shrunken log2 fold change” value is 0.0318. Turning to RRIRFRPPRLPRPRPRPMGNPRP, the “shrunken log2 fold change” value is -0.707. For RRIRGRPPRLPRPRPRPWCCPRP, the “shrunken log2 fold change” value was 0.0685. For the sequence RRIRPRPPRLPRPRPRPFIHPRP, the “shrunken log2 fold change” value is -0.224. The result for RRIRDRPPRLPRPRPRPEVSPRP reads 0.3. The result for RRIRTRPPRLPRPRPRPSEQPRP reads 0.0636. The value for RRIRWRPPRLPRPRPRPTQPPRP was 0.398; that for RRIRFRPPRLPRPRPRPPRCPRP was 0.612. With RRIRWRPPRLPRPRPRPVCGPRP, the “shrunken log2 fold change” value is 0.649.

Regarding RRIRLRPPRLPRPRPRPRGKPRP, the “shrunken log2 fold change” value worked out at 0.0746.

As to RRIRLRPPRLPRPRPRPVIDPRP, the “shrunken log2 fold change” value was -0.182. The result for RRIRDRPPRLPRPRPRPRSTPRP reads -0.00371; that for RRIRIRPPRLPRPRPRPTLNPRP, -0.181. For RRIRTRPPRLPRPRPRPQFTPRP, the “shrunken log2 fold change” value is -0.0397. In the case of RRIRSRPPRLPRPRPRPHHVPRP, the “shrunken log2 fold change” value was -0.243.

In the case of RRIRQRPPRLPRPRPRPSGCPRP, the “shrunken log2 fold change” value is 0.0869.

RRIRYRPPRLPRPRPRPVREPRP: the “shrunken log2 fold change” value is 0.484. Take RRIRMRPPRLPRPRPRPYESPRP: the “shrunken log2 fold change” value came to 0.107. The value for RRIRLRPPRLPRPRPRPFTHPRP was -0.342; that for RRIRCRPPRLPRPRPRPPGSPRP was 0.379; that for RRIRFRPPRLPRPRPRPWFIPRP was -0.175.

As to RRIRQRPPRLPRPRPRPSTQPRP, the “shrunken log2 fold change” value is -0.481. The result for RRIRTRPPRLPRPRPRPLISPRP reads -0.145; that for RRIRNRPPRLPRPRPRPSVQPRP, -0.0954; that for RRIRVRPPRLPRPRPRPCSTPRP, -0.127.

On to RRIRWRPPRLPRPRPRPLEIPRP, for which the “shrunken log2 fold change” value stood at 0.299.

For RRIRKRPPRLPRPRPRPENYPRP, the “shrunken log2 fold change” value was -0.0275. In the case of RRIRQRPPRLPRPRPRPFAIPRP, the “shrunken log2 fold change” value was determined as 0.00479.

Consider RRIRSRPPRLPRPRPRPTSHPRP, for which the “shrunken log2 fold change” value is -0.0965. For RRIRDRPPRLPRPRPRPGFFPRP, the “shrunken log2 fold change” value was 0.345.

In the case of RRIRQRPPRLPRPRPRPFNVPRP, the “shrunken log2 fold change” value is -0.375. In the case of RRIRKRPPRLPRPRPRPVFIPRP, the “shrunken log2 fold change” value is -0.0138. The result for RRIRFRPPRLPRPRPRPPSCPRP reads 0.337; that for RRIRFRPPRLPRPRPRPEQTPRP, -0.0498. The result for RRIRYRPPRLPRPRPRPITMPRP reads -1.13. The result for RRIRHRPPRLPRPRPRPHRVPRP reads 0.0179; that for RRIRWRPPRLPRPRPRPSATPRP, 0.985; that for RRIRCRPPRLPRPRPRPVFAPRP, -0.224.

For the sequence RRIRQRPPRLPRPRPRPKLHPRP, the “shrunken log2 fold change” value was -0.201. The value for RRIRTRPPRLPRPRPRPQSLPRP was -0.0105.

As to RRIRERPPRLPRPRPRPPNNPRP, the “shrunken log2 fold change” value is -0.186. The result for RRIRIRPPRLPRPRPRPFCAPRP reads -0.088; that for RRIRSRPPRLPRPRPRPNKAPRP, 0.0174; that for RRIRMRPPRLPRPRPRPWLQPRP, -0.000921.

Take RRIRVRPPRLPRPRPRPRWGPRP: the “shrunken log2 fold change” value came out at 0.157. Take RRIRIRPPRLPRPRPRPEWQPRP: the “shrunken log2 fold change” value came out at 0.118.

As to RRIRERPPRLPRPRPRPASSPRP, the “shrunken log2 fold change” value worked out at 0.0151. For RRIRMRPPRLPRPRPRPWCSPRP, the “shrunken log2 fold change” value is -0.075. The value for RRIRERPPRLPRPRPRPSKYPRP was -1.02. As for RRIRGRPPRLPRPRPRPRSTPRP, the “shrunken log2 fold change” value was 0.978.

As for RRIRSRPPRLPRPRPRPGYHPRP, the “shrunken log2 fold change” value is -0.512.

For RRIRYRPPRLPRPRPRPVDVPRP, the “shrunken log2 fold change” value is -0.359. Take RRIRLRPPRLPRPRPRPYEHPRP: the “shrunken log2 fold change” value was -0.583. For RRIRTRPPRLPRPRPRPRRWPRP, the “shrunken log2 fold change” value was -0.0464.

On to RRIRCRPPRLPRPRPRPHPKPRP, for which the “shrunken log2 fold change” value is -0.102.

With RRIRVRPPRLPRPRPRPARIPRP, the “shrunken log2 fold change” value came to 0.149. The result for RRIRERPPRLPRPRPRPGGVPRP reads 0.0164; that for RRIRERPPRLPRPRPRPVCAPRP, 0.415.

With RRIRYRPPRLPRPRPRPIFFPRP, the “shrunken log2 fold change” value is -0.353. In the case of RRIRERPPRLPRPRPRPDKYPRP, the “shrunken log2 fold change” value was -0.449. Take RRIRSRPPRLPRPRPRPCQYPRP: the “shrunken log2 fold change” value amounted to 0.0376. As for RRIRCRPPRLPRPRPRPEEPPRP, the “shrunken log2 fold change” value was 0.847. The result for RRIRDRPPRLPRPRPRPAMNPRP reads 0.139; that for RRIRPRPPRLPRPRPRPGLEPRP, 0.195; that for RRIRQRPPRLPRPRPRPTAWPRP, 0.591. The result for RRIRTRPPRLPRPRPRPDPNPRP reads 0.0586; that for RRIRVRPPRLPRPRPRPWRHPRP, 0.288. The value for RRIRERPPRLPRPRPRPGGPPRP was -0.00661; that for RRIRARPPRLPRPRPRPNVHPRP was 0.0927; that for RRIRNRPPRLPRPRPRPHGSPRP was -0.00146. As for RRIRFRPPRLPRPRPRPIDCPRP, the “shrunken log2 fold change” value is -0.046. RRIRTRPPRLPRPRPRPMPWPRP: the “shrunken log2 fold change” value is 0.253. The value for RRIRQRPPRLPRPRPRPFMNPRP was -0.148; that for RRIRFRPPRLPRPRPRPTPMPRP was 0.178; that for RRIRKRPPRLPRPRPRPSIHPRP was -0.551. The result for RRIRQRPPRLPRPRPRPFNLPRP reads -0.649; that for RRIRARPPRLPRPRPRPDGGPRP, 0.432. Take RRIRTRPPRLPRPRPRPACNPRP: the “shrunken log2 fold change” value was determined as 0.0894. As to RRIRTRPPRLPRPRPRPLDFPRP, the “shrunken log2 fold change” value was -0.19. Consider RRIRPRPPRLPRPRPRPCRQPRP, for which the “shrunken log2 fold change” value amounted to 0.111.

As for RRIRLRPPRLPRPRPRPCHNPRP, the “shrunken log2 fold change” value amounted to 0.0575. The result for RRIRCRPPRLPRPRPRPDMAPRP reads -0.145; that for RRIRCRPPRLPRPRPRPHYKPRP, -0.894.

Regarding RRIRFRPPRLPRPRPRPHCCPRP, the “shrunken log2 fold change” value is -0.166. Turning to RRIRGRPPRLPRPRPRPWSPPRP, the “shrunken log2 fold change” value was 0.178. The result for RRIRLRPPRLPRPRPRPGNNPRP reads -0.58.
